The target in test [1] is T1, Recombinant human low affinity IL-12 receptor protein (clone No. 5) expressed in COS cells (human). The experiment in a line: equilibrium binding of labeled IL-12 to COS cells electroporated with clone number 5, Scatchard, single site (FIG. 19B). As for the experimental part: (§1) Binding assays with labeled IL-12 or labeled 2-4E6 antibody were run as described hereinabove under anti human IL-12 receptor antibody. The binding data were analyzed and Kd values were calculated according to Scatchard, using the LIGAND program discussed hereinabove under anti human IL-12 receptor antibody. In vivo labeling (6 hours) of COS cells (3 ×10^5 cells per 35 mm diameter tissue culture dish) with […] was performed 3 days after transfection as described (Molecular Cloning Manual). Cells were washed in PBS and lysed in CHAPS lysis buffer (10 mM CHAPS-300 mM Nacl-50 mM Tris-HCl pH 7.4-2 mg/ml lodoacetamide-0.17 mg/ml PMSF), precleared by incubation with protein G Sepharose beads (50 µl packed beads per ml, Genex) and normal mouse serum (25% final concentration) at 4° C. overnight. […]
(§2) IL-12 receptor cDNA (clone number 5) (SEQ ID NO:1) was electroporated into COS cells and equilibrium binding of labeled human and murine IL-12 to the cells was performed and analyzed as described (R. Chizzonite, et al., 1992, J. Immunol., 148:3117). […] After transformation by the method of Scatchard, the equilibrium binding data was best described by a single receptor site model as determined by the LIGAND program. The site numbers indicated in FIG. 19 are calculated assuming that all cells are expressing receptors. […]

For test [2], the target named is Human IL-12 receptor subunit monomer (on murine CTLL transfectants, which only express monomers); monomer form … (human). Description: IL-12 binding to murine CTLL transfectants stably expressing the IL-12 receptor subunit (monomers only).
Test [3] concerns the target T1, Recombinant human low affinity IL-12 …. The experiment in a line: equilibrium binding of labeled IL-12 to COS cells electroporated with clone number 5, Scatchard, single site (FIG. 19A). As for the experimental part:
as §1, §2

The target is the same in test [4]. The experiment in a line: IL-12 binding to intact transfected COS cells; told in the discussion.
Test [5] has the same target. Description: steady state binding of 125I-IL-12 to rIL-12R expressing COS cells, Scatchard (FIGS. 4A and 4B). As for the experimental part:
The characteristics of the protein bound by mAb 2-4E6 fulfilled standard criterion for an IL-12R and therefore 2-4E6 was used in an expression cloning strategy to isolate a cDNA coding for the human IL-12R. A cDNA coding for the human IL-12R was isolated by this method (U. Gubler and A. O. Chua, unpublished observations). The IL-12R cDNA was engineered in a mammalian cell expression vector, transfected into COS-7 cells and the specificity for binding of ^125I-IL-12 and ^125I-2-4E6 was determined. […] This low affinity IL-12 binding site corresponds to the low affinity site seen in the binding assays with human cells that naturally express IL-12R. The binding of ^125I-2-4E6 to, rIL-12R expressed in the COS cells is saturable and specific and identifies approximately 500,000 sites/cell (FIGS. 4C and 4D).
For FIGS. 4A and 4B, COS cells were transfected with a plasmid expressing human rIL-12R as. described. Three days later, transfected cells (1×10^4 cells) were incubated for 2 hrs at room temperature with increasing concentration of ^125I-IL-12 in the absence (o) or presence (□) of 50 nM unlabeled IL-12. Total (o) and non-specific (□) cell bound radioactivity were determined as described. Specific binding of ^125I-IL-12 (▲) was calculated by subtracting non-specific binding from total binding.

Test [6] shares this target. Description: IL-12 binding to transfected COS cells; told in the discussion.

B1: Recombinant murine IL-12 (ligand)
chain 1: MWELEKDVYVVEVDWTPDAPGETVNLTCDTPEEDDITWTSDQRHGVIGSGKTLTITVKEFLDAGQYTCHKGGETLSHSHLLLHKKENGIWSTEILKNFKNKTFLKCEAPNYSGRFTCSWLVQRNMDLKFNIKSSSSSPDSRAVTCGMASLSAEKVTLDQRDYEKYSVSCQEDVTCPTAEETLPIELALEARQQNKYENYSTSFFIRDIIKPDPPKNLQMKPLKNSQVEVSWEYPDSWSTPHSYFSLKFFVRIQRKKEKMKETEEGCNQKGAFLVEKTSTEVQCKGGNVCVQAQDRYYNSSCSKWACVPCRVRS
chain 2: RVIPVSGPARCLSQSRNLLKTTDDMVKTAREKLKHYSCTAEDIDHEDITRDQTSTLKTCLPLELHKNESCLATRETSSTTRGSCLPPQKTSLMMTLCLGSIYEDLKMYQTEFQAINAALQNHNHQQIILDKGMLVAIDELMQSLNHNGETLRQKPPVGEADPYRVKMKLCILLHAFSTRVVTINRVMGYLSSA
The Kd is the free concentration of one partner at which half of the binding sites on the other are occupied at equilibrium, for simple one-to-one binding. Turning to B1, the Kd in test [1] came to 2.1 nM.

B2: Recombinant human IL-12 (Interleukin-12) (ligand)
chain 1: IWELKKDVYVVELDWYPDAPGEMVVLTCDTPEEDGITWTLDQSSEVLGSGKTLTIQVKEFGDAGQYTCHKGGEVLSHSLLLLHKKEDGIWSTDILKDQKEPKNKTFLRCEAKNYSGRFTCWWLTTISTDLTFSVKSSRGSSDPQGVTCGAATLSAERVRGDNKEYEYSVECQEDSACPAAEESLPIEVMVDAVHKLKYENYTSSFFIRDIIKPDPPKNLQLKPLKNSRQVEVSWEYPDTWSTPHSYFSLTFCVQVQGKSKREKKDRVFTDKTSATVICRKNASISVRAQDRYYSSSWSEWASVPCS
chain 2: RNLPVATPDPGMFPCLHHSQNLLRAVSNMLQKARQTLEFYPCTSEEIDHEDITKDKTSTVEACLPLELTKNESCLNSRETSFITNGSCLASRKTSFMMALCLSSIYEDLKMYQVEFKTMNAKLLMDPKRQIFLDQNMLAVIDELMQALNFNSETVPQKSSLEEPDFYKTKIKLCILLHAFRIRAVTIDRVMSYLNAS
Regarding B2, the Kd in test [2] was no less than 50 nM; in test [3], 3.4 nM; in test [4], 2 to 5 nM; in test [5], 2 to 6 nM; in test [6] it was roughly 3 nM.
